Assay: label from the status in PepcDB records
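Further: failed if final PepcDB status was selected cloned or expressed and not failed if soluble or beyond.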

Sequence | protein production
MTDESDSTAHVSCIIPVYNDSVGIKNTLRSVVGQEYHGYDVYVVDNGSTDGSRRRVRNCAAESDDIQLLVEDEVQGSYAARKTGVQNAESDVLAFLDADETVDEDWLETALGAMQEQDVDYLGCNVELTCPEDTLVGRYNARTGFPVEEYLEDQNYAPTCALLVRRKVFEDVGPFDARLISGGDREFGDRVHDAGYEQGYAENATVYHPARTSLESLAKKNFRVGRGFCQKQRYYPERYGKPGIPPTPSGPSGGDDGDEPDASLTRLAFTLLSIAMLACRGVGYYYEFVVGEENDDIPAPTSLEHHHHHH | failed
MTDKIFQEKVGPVALTIVPTQKYKSNKIVFKFRAPLERETVTKRSLLSILLETNSEKYPTQTAFRKQLANLYGANFYTTTAKKGNEHVLTVVFDMIDGQYVSDGENILKDAFAFIEQAIFQPNATNGAFDEEIVVREKENLKSSLEGIYDDKIRFASKRLVEEMFRDDEFRFGAAGVLEDVDAITAKDLYEYYLKFIKEDVIEIFICGDVTKEEVMPLIEKMAFSPRPERKGVFYTKEAPKETRVIHEQQAINQGKLVLGYQTETLFGDDDFVALQLANGLLGGFANSKIFINVREKASLAYYASSRIDSFKGYMIISAGIDEVNYKQALTIIEEQIVAMKQGDFTEDELNQTKEMLINQLLETNDQAQGLIELAYNNVLREANLDLENWIIKIKQATKQEVVAAINKIKPDTIYFLSKGGEELHGKNHI | failed
MTDKKTTEKKETETAATFTEELTAVLEEIKEEPVKEKKKGEIVTIVNETDIQIGEREYRIVKNHRDAFDPERLGERFSEVLARYDYIVGDWGYEQLRLRGFFDTSNRRAAPDQRIDTLEDYLYEYCNFGCAYFVIERTGERKEKTTHRRRRHKKNNRSNAFVEEKSAPANKNSKPVIRTRKEENKKTTTPKQPSPKKSGKGFTIRQREELEHHHHHH | not failed
MTDLSARDRLAPDSSPRLLALASIALEAGALARQSLRRRHVDQMVSKGPRDYQTEIDVAVERLIVAGVSEAFPDHAIQGEEETGNRTGGPDAPVIYIDPIDGTTNFAWGLPHFGMTIAIAEQGKITCGVVYDSMLDELFSAEIGKGATLNGEKLRCADVADVQNVLVGAGLPVPGQVKSVDEELYHRALRRLMDNTAGVRRLGSAALSIAYVACGRLDGFFEDGLQVHDYGAAALILTEAGGVVTGFGGMPVDAGGGILAASPALHPWLLAGFQPGMDR | failed
MTDNKIKNEDGKLELIINAAQKRFAHYGLCKTTMNEIASDVGMGKASLYYYFPDKETLFEAVIKKEQNVFFDEMDKILNSGIDATALLKKYVKLRSLHFRHLLNLSKLRSDFFHNTKPVFAKAFESFKQKEVEIVAGIIQYGITTKEFKRGNKHENAEFLVHLLLGVRMVKLKYKEINDFDESDYEDLDKNMCKVAGMFLKEIQTEVASR | not failed
MTDNLINNGTKTTPEAEILTAASNSRSSDAQHDDTAPAGEVLLDIDPDELLSDPAEKEETSAQDIALPDHVAGSGSLDRLIDQARDYAEAATAENTNKAYKADWKHFTGWCRRKGVDALVPSPAVIGLYISDCAKPQDGSPALSVSTIERRLSGLAANYRQRGLALDMKDRHIASVWAGIKRHHAKPPTQKEAVLIEDVLAMVGALSYSLRDLRDRAILLIGYAGGLRRTEIVGLDVGKDESDDGRGWVEILEGGAVLHIKGKTGWREVEIGRGSADQTCPVYALEQWLHYAKIDVGSVFRQVFRDNSRIGPERLSDKHVVRLIKRLVLETGVGLDRPALSKLSDEERAKFFAGHSLRAGLASGAEVDERYVQKQLGHASAEMTRRYQRRRDRFRVNLTKAVGL | failed
MTDNNQNNENHENSSENSKADEMRAGAFERFTNRKKRFRENAQKNAEYSNHEASSHHKKEHRPNKKPNNHHKQKHAKTRNYAQEELDSNKVEGVTEILHVNERGTLGFHKELKKGVEANNKIQVEHLNPHYKMNLNSKASVKITPLGGLGEIGGNMMVIETPKSAIVIDAGMSFPKEGLFGVDILIPDFSYLHQIKDKIAGIIITHAHEDHIGATPYLFKELQFPLYGTPLSLGLIGSKFDEHGLKKYRSYFKIVEKRCPISVGEFIIEWIHITHSIIDSSALAIQTKAGTIIHTGDFKIDHTPVDNLPTDLYRLAHYGEKGVMLLLSDSTNSHKSGTTPSESTIAPAFDTLFKEAQGRVIMSTFSSNIHRVYQAIQYGIKYNRKIAVIGRSMEKNLDIARELGYIHLPYQSFIEANEVAKYPDNEILIVTTGSQGETMSALYRMATDEHRHISIKPNDLVIISAKAIPGNEASVSAVLNFLIKKEAKVAYQEFDNIHVSGHAAQEEQKLMLRLIKPKFFLPVHGEYNHVARHKQTAISCGVPEKNIYLMEDGDQVEVGPAFIKKVGTIKSGKSYVDNQSNLSIDTSIVQQREEVASAGVFVATIFVNKNKQALLESSQFSSLGLVGFKDEKPLIKEIQGGLEVLLKSSNAEILNNPKKLEDHTRNFIRKALFKKFRKYPAIICHAHSF | failed
MTDNRKFEIVADTELPGTPERVWQAVTKDTPAWMFPTDQWPDVKTTEEYPSHLVSRMDGPDGWFNQLEHVLEPLEGGRAKLHYVHSGIFADNWDEQYDGASKHTEFYLHTLGQYLQHFDGKPVVFTDIQAPPSSQAPDGFVQLKQALGVDGLPTGTSVDVDIDGVGRLSAEVDFSNENFLGLRTADTMYRFFGRNVFGAPVGMTVHEFSGSGDSELTAKAWGAFLEKVYALEHHHHHH | failed
MTDNRPCRKDLLDWINVVSFAVDDVKLFLDTHPCNKEAMEFFDEFKKQRVQALKEYAKYYGPLTLDTASTCTERWNWINEPWPWQEGGCLEHHHHHH | failed
MTDPSSTLRLRGLLAEIVAAPLTRTVALLALCSAYIQGPLTKIFDFPGAIAEMNHFGLQPAAAFAVFVIIFELTASAMVVTGVLRWVGALALSGFTLLATFIALRFWEMAPGMDRMMATNAFFEHLGLAGAFVIVAAIDLTKGTGK | not failed
MTDRIMALVDGSGFSRSVCLHAAWLAQRLELPVDLLHVLGRREAADRGDLSGALQLGARTALLEELAALDAERARLAQAQGRAILEDAQAILAAESVETTPHLRQGDLIDTVAGFERSGRALVVGKRGRAAGFASAHLGSNLERLLRASKLPVLIVPADCR | failed
MTDYFHLHFNKGEFNAENLFIELKGNFAVYGSRWYFGESIETLKGTARTLDKADGAISLEDGIISRNGIALLDDSQGFIWDEQSGYIERENQIDLYFFAYGHDYRGAIRDFYHLTGSTPLLPRYALGNWWSRYWPYTSDEYLDLIDRFETEKIPLSIGVLDMDWHITDIPARFGSGWTGYSWNRNLIPNPEQLLQQLHDRKLKLSLNVHPADGIRAYEEAYPQIAKRLGLNVELEEPAIFDFFNPSFREAYFKDVHYELEKQGVDFWWIDWQQGTQGMLDPLWLLNHYHYQDSCKNAEGGLILSRYAGPGSHRYPVGFSGDTIISWNSLRFQPYFTATASNIGYSWWSHDIGGHMLGDYDEELQTRWLQFGVFSPITRLHSSRSPFNSKEPWFFSETTSKIMKKYLRLRHQMIPYLYTMNVQTHEEGAPLISPIYYFYPENDESYNVPNQYFFGTELMVAPIVEKMDLTFQSAKVDVWFPEGEWYDFFSEKKYTGGVKLSVYRDISTTPVFAKSGAIIPLVGSEIGMGVDLPEVVDWYVFPGKQHSFEMLEDQNGQRYKTRLSIDWEMGMVELALQGDSSIVPSNRKHRIHFKGTNVSIIELPNKNDTAKFEWKDNKRTSLNDEVFRLLKTASLPYELKDRLLNQFINAKNSHDLMNILHHQDKELRGRLLEMIFTSQNLEHHHHHH | failed
MTDYVNYNQERWNRVSARQGNAYTVPLSHEEFLVAKDKPLSVSLTVGKTVPLDWFEKAKGKKLLGLACGGGQQGPISAAHSYETTILDFSKEQLDKDRLVAERENLDLQTVQADMTQAFPFEDESFDIIFCPVSNIYIEDLANMWQESYRVLKKGGLLMVGYMNPWIYVFDADDVWEHPDKTLVPKYSLPFNARQLEEAGQITIDPEYGYEFSHTLEEQIAGQLRAGFAMIDFYESKDSRNRLTQFASDYLANLSMKW | failed
MTEARAGLFARRRYLPALAVLYAALWLALAIEPHDRSDWLLENALVLGFGVALYATRRWFVFSRVSYTLIFLYLCLHAVGAHYTYSLVPYDAWWQRLTGHSLDQLLGWERNQFDRLVHFSYGLLLAYPIREIFLRVVDVRGFWGYLLPLDVALSTSALYELIEWGAAEFFGGELGVAYLGTQGDIWDAQKDMALAGLGALIAMLLTALFNRGARRDPARDWVDRMKPGHT | failed
MTEASAPLIDVDPRLLEVLVCPVTRGPLEYDRAKGELISRAAKLAYPIRDGVPIMLPEEARELEGLEHHHHHH | not failed
MTEDQVEILEYNFNKVNKHPDPTTLCLIAAEAGLTEEQTQKWFKQRLAEWRRSEGLPSECRSVTD | not failed
MTEDRLSAEDKKFLEVERALKEAALNPLRHATEELFGDFLKMENITEICYNGNKVVWVLKNNGEWQPFDVRDRKAFSLSRLMHFARCCASFKKKTIDNYENPILSSNLANGERVQIVLSPVTVNDETISISIRIPSKTTYPHSFFEEQGFYNLLDNKEQAISAIKDGIAIGKNVIVCGGTGSGKTTYIKSIMEFIPKEERIISIEDTEEIVFKHHKNYTQLFFGGNITSADCLKSCLRMRPDRIILGELRSSEAYDFYNVLCSGHKGTLTTLHAGSSEEAFIRLANMSSSNSAARNIKFESLIEGFKDLIDMIVHINHHKQCDEFYIKHR | not failed
MTEEHVVLLDEQDKPSGTLEKYAAHTLNTPLHLAFSCWLFNEDGQLLVTRRSLSKKAWPGVWTNSVCGHPQQGETTEEAIIRRCRFELGVEITDLTPVYPHFSYRATDPNGIVENEVCPVFAARATSVLQVNSEEVMDYQWSEFKSVWKSLLATPWAFSPWMVMQASDEQARERLLNYCQR | not failed
MTEGLAVELAGLRSFSIVMPAYNVVTQRGERIFRETLESIAASCRYLQQHFPYTPEGELILISDGSTDRTCDVAMAGWPNAVPLQLVGLPTNVGIAAARNIGVRLAKGEVIFFCDADDLYRPEHLFLALSVLNQPLPEPYAPAYFGAVRTGVYCRDRLHPYWHKSLEQTLVLNLAVRREVHEFIGGFPEDEVFRQFRYGAEDVAYAYWLHQFCHTARLEQRTVEYRRFPNSVFDRQLKKFQAAPGTVADDLDEGDRQQEAQIRQIMATRLQELQAKAAQGVALEHHHHHH | failed
MTEHSLWRFSRALHRALNDRQTEELATIIDDNIDWAIYGPIDMFPFFGARQGKAAVLEVCRQIADSVRIYRYHRESVMLGIDSAASMVRYSLTAAGTNRPISVRMALFTQFQNGRLTNLRMVLDTFDLVEQALGRPIHLPKIA | not failed
MTEIALIGNPNSGKTSLFNLLTGTSQRVGNWPGVTVERKSGNVKKLKEISVQDLPGIYSMSPYSPEEKVARDYLLSNHADSILNVVDATNLERNLYLTTQLIETGIPVTIALNMSDVLKNQGKSINSDKLAYQMGVPVVATSALKNTGVDKAVKKASQTTKGSVDSVQYPTYDAKFEAAIAQIIEVLGQTVPERSSRFYAIKLFERDRLVEEELDLSPFQKKEIKDIIQITEEVFTEDSESIVINQRYAFIERVSQMAQSQDNDFKMSASDKIDKIVTNRVLALPIFAVVMFLVYYLSIQTVGTMGTDWVNDILFGKYVPEFVTGVLEALKVQAWLQSLIIDGVVAGVGTVLGFLPQIFVLFICLGILEDIGYMSRIAFVMDRIFRRFGLSGKSFIPMLISTGCGVPGIMASRTIENERDRRITIMTTTFMPCSAKLSVIALIAGAFFPHNPWIAPSAYFMGMIAIILSGIALKKTSFLGGYTSPFIMELPSYHLPKVDAVLRYAFGKAMSFVKRAGTIIFSLTVLIWFMSSYNFTLHSVDTENSILASLGRLLAWIFTPLGFGNWKATVAALTGLAAKETVVATFGILYNNPDATETTHSLWVSLQGDYTALAAYSFLTFNLLCAPCFASIGAIKREMGNLKWTLVAIAYQTGLAYLVSLIIYQLGLVAFYGKPVTLWTGLALVLLLVMLYFIIRKPRQVKEKVITLDNLSLSHN | failed

— a protein production outcome set (Wang et al. 2014)
